Assay results: patent EP3628678A1 (Ecole Polytechnique Federale De Lausanne (EPFL) EPFL-TTO, dated 2020)

Target: RSVF on RSV A2 strain carrying a luciferase gene (RSV-Luc) (RSV A2 strain, UniProt P03420 26-574)
Assay: cell-based or functional assay

RSVF on RSV A2 strain carrying a luciferase gene (RSV-Luc), sequence (P03420 26-574): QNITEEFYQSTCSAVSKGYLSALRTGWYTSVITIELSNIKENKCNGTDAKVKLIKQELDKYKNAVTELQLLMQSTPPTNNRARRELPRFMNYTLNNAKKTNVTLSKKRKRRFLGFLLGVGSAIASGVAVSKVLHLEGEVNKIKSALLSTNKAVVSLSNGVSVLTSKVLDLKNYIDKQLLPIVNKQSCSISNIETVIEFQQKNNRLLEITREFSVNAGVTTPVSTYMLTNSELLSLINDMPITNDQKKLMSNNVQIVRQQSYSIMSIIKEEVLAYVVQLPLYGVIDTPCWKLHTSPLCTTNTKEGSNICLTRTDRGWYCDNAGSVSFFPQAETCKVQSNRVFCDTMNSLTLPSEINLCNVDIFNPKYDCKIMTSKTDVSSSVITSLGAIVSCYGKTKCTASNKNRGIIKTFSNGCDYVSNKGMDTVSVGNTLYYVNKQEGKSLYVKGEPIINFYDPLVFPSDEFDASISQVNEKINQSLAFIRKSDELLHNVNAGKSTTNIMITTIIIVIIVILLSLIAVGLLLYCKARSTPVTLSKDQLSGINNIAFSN

B1: Palivizumab (antibody, V domains shown)
VH: QVTLRESGPALVKPTQTLTLTCTFSGFSLSTSGMSVGWIRQPPGKALEWLADIWWDDKKDYNPSLKSRLTISKDTSKNQVVLKVTNMDPADTATYYCARSMITNWYFDVWGAGTTVTVSS
VL: DIQMTQSPSTLSASVGDRVTITCKCQLSVGYMHWYQQKPGKAPKLLIYDTSKLASGVPSRFSGSGSGTEFTLTISSLQPDDFATYYCFQGSGYPFTFGGGTKLEIK
- RSV neutralization IC50 (luciferase signal of RSV-Luc on HepG2 cells): 0.32 µg/mL
